Assay results taken from paper PMC5468478 (FEBS letters, 2017).

Target: the molecule itself
Assay: negative-stain electron microscopy

B1: Mod5 (enzyme, S. cerevisiae, UniProt P07884 1-428, looked up)
chain: MLKGPLKGCLNMSKKVIVIAGTTGVGKSQLSIQLAQKFNGEVINSDSMQVYKDIPIITNKHPLQEREGIPHHVMNHVDWSEEYYSHRFETECMNAIEDIHRRGKIPIVVGGTHYYLQTLFNKRVDTKSSERKLTRKQLDILESTDPDVIYNTLVKCDPDIATKYHPNDYRRVQRMLEIYYKTGKKPSETFNEQKITLKFDTLFLWLYSKPEPLFQRLDDRVDDMLERGALQEIKQLYEYYSQNKFTPEQCENGVWQVIGFKEFLPWLTGKTDDNTVKLEDCIERMKTRTRQYAKRQVKWIKKMLIPDIKGDIYLLDATDLSQWDTNASQRAIAISNDFISNRPIKQERAPKALEELLSKGETTMKKLDDWTHYTCNVCRNADGKNVVAIGEKYWKIHLGSRRHKSNLKRNTRQADFEKWKINKKETVE
- binding result: binds
